Results published in the RNAGym collection of RNA variant scans (doi:10.7554/elife.90254).

B1: LINE1-full (parent)
chain: UACGUAGGUGGUUUUCCCCUGAUAGUGCUAAGGGGGCCUGGAAGUUUGGACUGGGCAGAGCUCAACACAGCGUGGCAAAGUGGCUGUGGCUAGACUGCCUCUCUGGAUUCCUCGUCACUCAGCAGGGCAUCUCUGAGAGAAAUGCC

Variants of: B1
Test: self-cleavage, relative activity (ratio to wild type); higher = more cleavage; in vitro, sequencing; the parent is a self-cleaving ribozyme

| Variant | self-cleavage |
| --- | --- |
| G49A A59G | 0.02 |
| U52A G127A | 1.63 |
| G49A A50G | 0.82 |
| U52A U100A | 1.29 |
| A50G A59U | 0.84 |
| A50G A59G | 0.26 |
| A50G A57U | 0.14 |
| A50G A57G | 0.32 |
| U52A A129G | 1.3 |
| U47C U134C | 1.74 |
| A50U U143A | 1.47 |
| G48A U130C | 1.53 |
| U52A U130C | 1.42 |
| U47G U104C | 1.48 |
| G48A U85A | 0.05 |
| G48A U85C | 0.1 |
| C51A A107U | 1.3 |
| U47G U143C | 1.31 |
| A50U A138U | 1.16 |
| A50U A138C | 1.21 |
| U47G A142G | 1.33 |
| A50G U115A | 0.95 |
| A50G U115C | 1.42 |
| A50U U119C | 1.47 |

| Variant | self-cleavage |
| --- | --- |
| A50U U119A | 0.83 |
| A50C U109C | 0.97 |
| A50G A64G | 0.42 |
| A50G A64C | 0.37 |
| A50G A64U | 0.39 |
| C51U U96C | 0.12 |
| G48A A129U | 1.13 |
| A50G A92G | 0.19 |
| U47G A92G | 0.17 |
| A50C U91C | 0.48 |
| A50U C120A | 1.46 |
| G48U U119C | 1.95 |
| G49A U130C | 1.55 |
| G48A A78G | 1.21 |
| C51U A57G | 0.17 |
| G49A U62C | 0.03 |
| G48U U52A | 0.81 |
| A50G G55A | 0.15 |
| A50G A107G | 1.1 |
| A50G A124G | 0.51 |
| A50G A124U | 0.79 |
| G48C A142G | 1.38 |
| U47G U62A | 0.03 |
| A50U U100C | 0.81 |

| Variant | self-cleavage |
| --- | --- |
| A50U U100A | 0.31 |
| A50G U112A | 1.02 |
| U47G C68U | 0.06 |
| G49A G54A | 0.18 |
| G48A U81C | 1.14 |
| U47G U102A | 1.34 |
| A50G C128U | 0.36 |
| A50G A121C | 1.23 |
| A50C A67G | 0.62 |
| U47G U109C | 2.63 |
| G49C U130C | 1.67 |
| G48A A59G | 0.03 |
| A50C U73G | 0.79 |
| A50G G97A | 0.06 |
| U47C U115A | 1.75 |
| U47C U143A | 1.63 |
| G49A C133G | 1.39 |
| G49U | 0.94 |
| G49C | 1.15 |
| G49A | 1 |
| A50G G125A | 0.39 |
| A50G G74A | 0.48 |
| A50C A124G | 1.29 |
| U52A A67G | 0.38 |

| Variant | self-cleavage |
| --- | --- |
| U52A A67U | 0.05 |
| G49A U108C | 1.54 |
| U47G A69G | 0.67 |
| G48U U108C | 1.27 |
| A50G U52A | 0.91 |
| G48U A136G | 1.19 |
| U52C A57U | 0.08 |
| U52C A57G | 0.4 |
| U52A U112C | 1.43 |
| A50G U130C | 1.05 |
| A50U A59G | 0.04 |
| U52A G58A | 0 |
| U52A A64U | 0.46 |
| U52A A142G | 1.46 |
| A50G C90G | 0.06 |
| A50U U112A | 1.15 |
| U52A A69G | 0.71 |
| U52A U132A | 1.18 |
| U52A U132C | 1.48 |
| U52A G137U | 1.06 |
| U52A G137A | 0.99 |
| C51G U96A | 0.05 |
| G49A U115C | 1.33 |
| G48A U52A | 1.22 |

| Variant | self-cleavage |
| --- | --- |
| A50C A117U | 0.92 |
| U47G A138G | 0.98 |
| A50G A140U | 0.93 |
| A50G A140G | 0.94 |
| G49A A117U | 1.05 |
| A50G C113A | 0.35 |
| G49A G72A | 1.45 |
| U47G U100A | 0.42 |
| G49U U62C | 0.08 |
| A50C U143C | 0.82 |
| C51U G89U | 0.03 |
| C51U A140G | 1.09 |
| U47G U130A | 1.23 |
| U47G A64G | 0.23 |
| A50G A142G | 0.9 |
| A50G A142C | 1.07 |
| U47G A65G | 0.1 |
| A50U A136U | 1.21 |
| G48A G72A | 0.96 |
| G48A A124G | 0.92 |
| G48A A124U | 1.02 |
| U52A C113A | 1.24 |
| U47G A57G | 0.62 |
| G48A A79G | 1.43 |

| Variant | self-cleavage |
| --- | --- |
| A50U G89A | 0.02 |
| C51U A124U | 2.12 |
| U52A U108C | 1.66 |
| U52A G135C | 1.82 |
| U47G C111U | 1.62 |
| U52A C111A | 1.25 |
| C51U C145G | 1.28 |
| G48A A57G | 0.6 |
| A50G U132G | 1.15 |
| A50G U132A | 1.34 |
| U47G A129G | 1.31 |
| A50U U102C | 1.17 |
| A50U U102A | 1.63 |
| U52A U102A | 1.03 |
| U52A A138G | 1.57 |
| A50G U96A | 0.04 |
| A50G U96C | 0.1 |
| A50U U85C | 0.14 |
| A50U A140U | 0.92 |
| U52A A77G | 2.06 |
| A50U A65G | 0.06 |
| U52A U85G | 0.22 |
| U52A U85A | 0.1 |
| G48U U109A | 1.42 |

| Variant | self-cleavage |
| --- | --- |
| A50U C66U | 0.01 |
| A50U U96A | 0.03 |
| A50U U96G | 0.3 |
| A50U U96C | 0.1 |
| A50G G60A | 0.04 |
| G49A U85C | 0.1 |
| G49U G127A | 0.27 |
| A50G A78C | 0 |
| A50G G89A | 0.06 |
| U47G U73A | 1.18 |
| A50U U87A | 0.1 |
| A50U U87C | 0.23 |
| G49C A140G | 1.51 |
| G49U U109C | 0.95 |
| C51U U104A | 1.02 |
| U52A A65U | 0.21 |
| U52A A65G | 0.04 |
| G48A U102A | 1.71 |
| G48A A50G | 0.53 |
| G49U A94U | 0.32 |
| A50U C63U | 0.2 |
| A50U C63A | 0 |
| G48A G55U | 0.19 |
